Test results reported in paper PMC4345318, “Dynamic association of PfEMP1 and KAHRP in knobs mediates cytoadherence during Plasmodium invasion” (Scientific Reports, 2015).

What was measured:
[1] = target: VARC (acidic terminal segment, cytoplasmic domain fragment of PfEMP1, comprising VARC A and VARC B); assay: ITC (GE MicroCal ITC200); details: pH 6.9, 298 K, 0.013 M (no added salt), 10 mM sodium phosphate
[2] = target: T1, VARC (cytoplasmic acidic terminal sequence domain of P. falciparum erythrocyte membrane protein-1, PfEMP1) (Plasmodium falciparum, UniProt Q8IAK2 2467-2757); assay: ITC; 0.7 mM K2A1 in the syringe, 0.07 mM VARC in the cell; 298 K; 10 mM sodium phosphate pH 6.9, 5 mM DTT, no additional salt; 40 injections of 1 μL; fitted to a sequential four site model, and to a simple hetero-association model (A + B <-> AB) in SEDPHAT for an apparent global Kd; details: both partners purified
T1 construct: also called ATS; cytoplasmic domain of PfEMP1; source: E. coli BL21 (DE3) CodonPlus, purified (Ni-NTA, gel permeation chromatography on Superdex 75)
T1 sequence: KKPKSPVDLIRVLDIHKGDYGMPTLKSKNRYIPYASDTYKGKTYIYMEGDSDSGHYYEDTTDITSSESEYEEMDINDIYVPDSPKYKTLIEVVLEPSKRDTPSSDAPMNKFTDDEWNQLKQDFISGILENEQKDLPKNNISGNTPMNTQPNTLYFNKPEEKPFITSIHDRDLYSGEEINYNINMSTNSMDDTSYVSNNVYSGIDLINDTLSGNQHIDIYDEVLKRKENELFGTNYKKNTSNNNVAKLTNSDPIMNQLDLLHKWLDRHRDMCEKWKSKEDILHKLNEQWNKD

[3] = target: T1, VARC (cytoplasmic acidic terminal …); assay: NMR titration; 2D [15N,1H] HSQC of 10 μM 15N-labelled K2A1 with unlabelled VARC added at 1:1, 1:2.5, 1:5, 1:7.5 and 1:10 molar ratios; 278 K; 10 mM sodium phosphate pH 6.2, 5 mM DTT, no additional salt (ionic strength 0.013 M); Kd by fit of amide chemical shift perturbations; the 1:5 complex also measured at 20, 50, 100 and 150 mM NaCl; details: both partners purified

Q: With “K2A1 (first tandem repeat of the K2A lysine-rich region of knob-associated histidine-rich protein, KAHRP)” as the molecule, how does the “Kd (first value, four-site sequential model)” value [1] read?
A: 9.8 µM

Q: And the “Kd (fourth value, four-site sequential model)” value [1]?
A: 9.6 µM

Q: And the “Kd (second value, four-site sequential model)” value [1]?
A: 10.3 µM

Q: What about the “Kd (third value, four-site sequential model)” value [1] of the same molecule?
A: 10.1 µM

B1: K2A1 (first of the two tandem repeats of the K2A region of knob associated histidine rich protein, KAHRP) (domain or fragment)
chain: KHHSSKKHEGNDGEGEKKKKSKKHKDHDGEKKKSKKHKDNEDAESVKSKK
notes: also called truncated K2A; source: E. coli BL21 (DE3) CodonPlus, purified (Ni-NTA, gel permeation chromatography on Superdex 75); not shown: His6, C-terminal, kept
Q: Which results are given for B1?
A: Kd [2]: 32.1 µM; Kd of site 1 (four-site binding model) [2]: 9.8 µM; Kd of site 2 (four-site binding model) [2]: 10.3 µM; Kd of site 3 (four-site binding model) [2]: 10.1 µM; Kd of site 4 (four-site binding model) [2]: 9.6 µM; Kd [3]: 7 to 15 µM
